Laboratory results published in patent US20180250358A1, “GHRH AGONISTS FOR THE TREATMENT OF ISCHEMIC DISORDERS” (published 2018).
Non-standard residues stand in square brackets, D forms with d. No end group written: not given here. *: point of attachment. Desaminotyrosyl = O=C(CCc1ccc(O)cc1)*; NMeY = CN[C@@H](Cc1ccc(O)cc1)C(=O)O; Agmatine = N=C(N)NCCCCN*; NMeA = CN[C@@H](C)C(=O)O; Nle = CCCC[C@H](N)C(=O)O; Orn = NCCC[C@H](N)C(=O)O; Abu = CC[C@H](N)C(=O)O; Aoc = NCCCCCCCC(=O)O

T1: GHRH receptor of human pituitary membranes (human, UniProt Q02643)
T1 sequence: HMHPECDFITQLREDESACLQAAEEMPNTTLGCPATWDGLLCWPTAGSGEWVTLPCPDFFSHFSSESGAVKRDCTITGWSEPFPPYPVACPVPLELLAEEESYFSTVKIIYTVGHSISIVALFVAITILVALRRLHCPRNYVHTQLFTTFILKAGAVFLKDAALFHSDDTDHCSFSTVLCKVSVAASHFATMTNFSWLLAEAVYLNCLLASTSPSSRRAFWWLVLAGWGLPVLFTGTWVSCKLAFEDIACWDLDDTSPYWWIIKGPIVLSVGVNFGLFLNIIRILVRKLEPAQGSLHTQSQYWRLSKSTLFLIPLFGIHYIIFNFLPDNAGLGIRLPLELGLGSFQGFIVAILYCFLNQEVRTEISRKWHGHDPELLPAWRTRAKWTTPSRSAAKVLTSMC

B1: P-27400 [Dat^1, D-Ala^2, Orn^12, Abu^15, Orn^21, Nle^27, Asp^28]hGHRH(1-29)NH-CH3 (peptide)
peptide: [Desaminotyrosyl][dA]DAIFTNSYR[Orn]VL[Abu]QLSAR[Orn]LLQDI[Nle]DR-NHMe
SMILES: CCCC[C@H](NC(=O)[C@@H](NC(=O)[C@H](CC(=O)O)NC(=O)[C@H](CCC(N)=O)NC(=O)[C@H](CC(C)C)NC(=O)[C@H](CC(C)C)NC(=O)[C@H](CCCN)NC(=O)[C@H](CCCNC(=N)N)NC(=O)[C@H](C)NC(=O)[C@H](CO)NC(=O)[C@H](CC(C)C)NC(=O)[C@H](CCC(N)=O)NC(=O)[C@H](CC)NC(=O)[C@H](CC(C)C)NC(=O)[C@@H](NC(=O)[C@H](CCCN)NC(=O)[C@H](CCCNC(=N)N)NC(=O)[C@H](Cc1ccc(O)cc1)NC(=O)[C@H](CO)NC(=O)[C@H](CC(N)=O)NC(=O)[C@@H](NC(=O)[C@H](Cc1ccccc1)NC(=O)[C@@H](NC(=O)[C@H](C)NC(=O)[C@H](CC(=O)O)NC(=O)[C@@H](C)NC(=O)CCc1ccc(O)cc1)[C@@H](C)CC)[C@@H](C)O)C(C)C)[C@@H](C)CC)C(=O)N[C@@H](CC(=O)O)C(=O)N[C@@H](CCCNC(=N)N)C(=O)NC
B2: P-25501 [N-Me-Tyr^1, D-Ala^2, Orn^12, Abu^15, Orn^21, Nle^27, Gab^30]hGHRH(1-30)NH2 (peptide)
peptide: YADAIFTNSYRKVLGQLSARKLLQDIMSRQ
modifications: N-Me-Tyr^1; D-Ala^2; Orn^12; Abu^15; Orn^21; Nle^27; Gab^30 (in place of Gln^30); C-terminal -NH2
B3: P-20357 [Dat^1, D-Ala^2, N-Me-Ala^8, Orn^12, Abu^15, Orn^21, Nle^27, Asp^28, Agm^29]hGHRH(1-29)NH2 (peptide)
peptide: [Desaminotyrosyl][dA]DAIFT[NMeA]SYR[Orn]VL[Abu]QLSAR[Orn]LLQDI[Nle]D[Agmatine]
SMILES: CCCC[C@H](NC(=O)[C@@H](NC(=O)[C@H](CC(=O)O)NC(=O)[C@H](CCC(N)=O)NC(=O)[C@H](CC(C)C)NC(=O)[C@H](CC(C)C)NC(=O)[C@H](CCCN)NC(=O)[C@H](CCCNC(=N)N)NC(=O)[C@H](C)NC(=O)[C@H](CO)NC(=O)[C@H](CC(C)C)NC(=O)[C@H](CCC(N)=O)NC(=O)[C@H](CC)NC(=O)[C@H](CC(C)C)NC(=O)[C@@H](NC(=O)[C@H](CCCN)NC(=O)[C@H](CCCNC(=N)N)NC(=O)[C@H](Cc1ccc(O)cc1)NC(=O)[C@H](CO)NC(=O)[C@H](C)N(C)C(=O)[C@@H](NC(=O)[C@H](Cc1ccccc1)NC(=O)[C@@H](NC(=O)[C@H](C)NC(=O)[C@H](CC(=O)O)NC(=O)[C@@H](C)NC(=O)CCc1ccc(O)cc1)[C@@H](C)CC)[C@@H](C)O)C(C)C)[C@@H](C)CC)C(=O)N[C@@H](CC(=O)O)C(=O)NCCCCNC(=N)N
B4: P-25503 [N-Me-Tyr^1, Abu^2, Orn^12, Abu^15, Orn^21, Nle^27, Gab^30]hGHRH(1-30)NH2 (peptide)
peptide: B2 peptide
modifications: N-Me-Tyr^1; Abu^2; Orn^12; Abu^15; Orn^21; Nle^27; Gab^30 (in place of Gln^30); C-terminal -NH2
B5: P-21300 [Dat^1, D-Ala^2, Orn^12, Abu^15, Orn^21, Nle^27, Asp^28, Amc^30]hGHRH(1-30)NH2 (peptide)
peptide: [Desaminotyrosyl][dA]DAIFTNSYR[Orn]VL[Abu]QLSAR[Orn]LLQDI[Nle]DR[Aoc]-NH2
SMILES: CCCC[C@H](NC(=O)[C@@H](NC(=O)[C@H](CC(=O)O)NC(=O)[C@H](CCC(N)=O)NC(=O)[C@H](CC(C)C)NC(=O)[C@H](CC(C)C)NC(=O)[C@H](CCCN)NC(=O)[C@H](CCCNC(=N)N)NC(=O)[C@H](C)NC(=O)[C@H](CO)NC(=O)[C@H](CC(C)C)NC(=O)[C@H](CCC(N)=O)NC(=O)[C@H](CC)NC(=O)[C@H](CC(C)C)NC(=O)[C@@H](NC(=O)[C@H](CCCN)NC(=O)[C@H](CCCNC(=N)N)NC(=O)[C@H](Cc1ccc(O)cc1)NC(=O)[C@H](CO)NC(=O)[C@H](CC(N)=O)NC(=O)[C@@H](NC(=O)[C@H](Cc1ccccc1)NC(=O)[C@@H](NC(=O)[C@H](C)NC(=O)[C@H](CC(=O)O)NC(=O)[C@@H](C)NC(=O)CCc1ccc(O)cc1)[C@@H](C)CC)[C@@H](C)O)C(C)C)[C@@H](C)CC)C(=O)N[C@@H](CC(=O)O)C(=O)N[C@@H](CCCNC(=N)N)C(=O)NCCCCCCCC(N)=O
B6: P-21301 [N-Me-Tyr^1, Orn^12, Abu^15, Orn^21, Nle^27, Asp^28, Amc^30]hGHRH(1-30)NH2 (peptide)
peptide: [NMeY]ADAIFTNSYR[Orn]VL[Abu]QLSAR[Orn]LLQDI[Nle]DR[Aoc]-NH2
modifications: N-terminus assumed
SMILES: CCCC[C@H](NC(=O)[C@@H](NC(=O)[C@H](CC(=O)O)NC(=O)[C@H](CCC(N)=O)NC(=O)[C@H](CC(C)C)NC(=O)[C@H](CC(C)C)NC(=O)[C@H](CCCN)NC(=O)[C@H](CCCNC(=N)N)NC(=O)[C@H](C)NC(=O)[C@H](CO)NC(=O)[C@H](CC(C)C)NC(=O)[C@H](CCC(N)=O)NC(=O)[C@H](CC)NC(=O)[C@H](CC(C)C)NC(=O)[C@@H](NC(=O)[C@H](CCCN)NC(=O)[C@H](CCCNC(=N)N)NC(=O)[C@H](Cc1ccc(O)cc1)NC(=O)[C@H](CO)NC(=O)[C@H](CC(N)=O)NC(=O)[C@@H](NC(=O)[C@H](Cc1ccccc1)NC(=O)[C@@H](NC(=O)[C@H](C)NC(=O)[C@H](CC(=O)O)NC(=O)[C@H](C)NC(=O)[C@H](Cc1ccc(O)cc1)NC)[C@@H](C)CC)[C@@H](C)O)C(C)C)[C@@H](C)CC)C(=O)N[C@@H](CC(=O)O)C(=O)N[C@@H](CCCNC(=N)N)C(=O)NCCCCCCCC(N)=O

target: T1, GHRH receptor of human pituitary …; test: competition vs 125I-JV-1-42, human pituitary membranes;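 further: pituitaries used were normal human glands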
Text: Normal human pituitaries were purchased from the National Hormone and Peptide Program (A.F. Parlow, Los Angeles, County Harbor-UCLA Medical Center, Torrance, Calif.).

| Binder | IC50 [nM] | relative affinity (binding potency) vs JI-38 [vs JI-38=1] |
| --- | --- | --- |
| B1 | 3.35 | 1.3 |
| B2 | 1.07 | 4.07 |
| B3 | 0.86 | 5.06 |
| B4 | 1.18 | 3.67 |
| B5 | 3.61 | 1.2 |
| B6 | 2.99 | 1.45 |
